In patent publication US20140243227A1, “CULTURE MEDIA FOR STEM CELLS” (Koninklijke Nederlandse Akademie van Wetenschappen, priority 2011, published 2014):

B1: RANK ligand: RANK ligand (RANKL), recombinant (protein, UniProt O14788 140-317, looked up)
Tumor necrosis factor ligand …: IRAEKAMVDGSWLDLAKRSKLEAQPFAHLTINATDIPSGSHKVSLSSWYHDRGWAKISNMTFSNGKLIVNQDGFYYLYANICFRHHETSGDLATEYLQLMVYVTKTSIKIPSSHTLMKGGSTKYWSGNSEFHFYSINVGGFFKLRSGEEISIEVSNPSLLDPDQDATYFGAFKVRDID
B2: FGF10: human recombinant FGF10 (Peprotech) (protein, UniProt O15520 38-208, looked up)
Fibroblast growth factor 10: QALGQDMVSPEATNSSSSSFSSPSSAGRHVRSYNHLQGDVRWRKLFSFTKYFLKIEKNGKVSGTKKENCPYSILEITSVEIGVVAVKAINSNYYLAMNKKGKLYGSKEFNNDCKLKERIEENGYNTYASFNWQHNGRQMYVALNGKGAPRRGQKTRRKNTSAHFLPMVVHS
B3: Noggin: BMP inhibitor (protein, UniProt Q13253 28-232, looked up)
Noggin: QHYLHIRPAPSDNLPLVDLIEHPDPIFDPKEKDLNETLLRSLLGGHYDPGFMATSPPEDRPGGGGGAAGGAEDLAELDQLLRQRPSGAMPSEIKGLEFSEGLAQGKKQRLSKKLRRKLQMWLWSQTFCPVLYAWNDLGSRFWPRYVKVGSCFSKRSCSVPEGMVCKPSKSVHLTVLRWRCQRRGGQRCGWIPIQYPIISECKCSC
B4: BDNF: brain-derived neurotrophic factor (protein, UniProt P23560 19-247, looked up)
Neurotrophic factor BDNF …: APMKEANIRGQGGLAYPGVRTHGTLESVNGPKAGSRGLTSLADTFEHVIEELLDEDQKVRPNEENNKDADLYTSRVMLSSQVPLEPPLLFLLEEYKNYLDAANMSMRVRRHSDPARRGELSVCDSISEWVTAADKKTAVDMSGGTVTVLEKVPVSKGQLKQYFYETKCNPMGYTKEGCRGIDKRHWNSQCRTTQSYVRALTMDSKKRIGWRFIRIDTSCVCTLTIKRGR
B5: GDNF: growth factor (Peprotech) (protein, UniProt P39905 78-211, looked up)
Glial cell line-derived …: SPDKQMAVLPRRERNRQAAAANPENSRGKGRRGQRGKNRGCVLTAIHLNVTDLGLGYETKEELIFRYCSGSCDAAETTYDKILKNLSRNRRLVSDKVGQACCRPIAFDDDLSFLDDNLVYHILRKHSAKRCGCI
B6: Follistatin: growth factor (Peprotech) (protein, UniProt P19883 30-344, looked up)
Follistatin: GNCWLRQAKNGRCQVLYKTELSKEECCSTGRLSTSWTEEDVNDNTLFKWMIFNGGAPNCIPCKETCENVDCGPGKKCRMNKKNKPRCVCAPDCSNITWKGPVCGLDGKTYRNECALLKARCKEQPELEVQYQGRCKKTCRDVFCPGSSTCVVDQTNNAYCVTCNRICPEPASSEQYLCGNDGVTYSSACHLRKATCLLGRSIGLAYEGKCIKAKSCEDIQCTGGKKCLWDFKVGRGRCSLCDELCPDSKSDEPVCASDNATYASECAMKEAACSSGVLLEVKHSGSCNSISEDTEEEEEDEDQDYSFPISSILEW
B7: Cyr61: growth factor (Peprotech) (protein, UniProt O00622 25-381, looked up)
CCN family member 1: TCPAACHCPLEAPKCAPGVGLVRDGCGCCKVCAKQLNEDCSKTQPCDHTKGLECNFGASSTALKGICRAQSEGRPCEYNSRIYQNGESFQPNCKHQCTCIDGAVGCIPLCPQELSLPNLGCPNPRLVKVTGQCCEEWVCDEDSIKDPMEDQDGLLGKELGFDASEVELTRNNELIAVGKGSSLKRLPVFGMEPRILYNPLQGQKCIVQTTSWSQCSKTCGTGISTRVTNDNPECRLVKETRICEVRPCGQPVYSSLKKGKKCSKTKKSPEPVRFTYAGCLSVKKYRPKYCGSCVDGRCCTPQLTRTVKMRFRCEDGETFSKNVMMIQSCKCNYNCPHANEAAFPFYRLFNDIHKFRD

Columns and labels:
[1] = tested on: mouse organoids; experiment: M cell development in organoids stimulated with RANK ligand; format: cell-based
Protocol: FIG. 48: A) Mouse organoids were cultured in the presence of different doses recombinant mouse RANKL for 72 h. mRNA expression levels for RANK, the transciption factor SpiB and the M cell-specific markers GP2 and AnnexinV were determined by qPCR.

[2] = tested on: human colon crypts; experiment: Screening of reagents for optimization of human intestinal organoids culture (plating efficiency); format: cell-based; conditions: First screening (WENR)
[3] = tested on: Barrett's Esophagus epithelium; experiment: Culture of Barrett's esophagus (BE) organoids; conditions: FGF10 added to HISC condition
[4] = tested on: pancreatic organoids; experiment: Effect of Noggin on gene expression of pancreatic organoids in expansion medium; conditions: EGFRAN vs EGFRA medium

Row | Molecule | Activity (plating efficiency compared with control after 4 days culture) [2] | also measured
1 | B1 |  | Development of M cells [1]: can develop into M cells
2 | B2 | 0 | Culture duration of BE organoids [3]: > 3 months
3 | B3 |  | Lgr5 expression relative to organoids cultured without Noggin [4]: 2 fold
4 | B4 | 0 | 
5 | B5 | 0 | 
6 | B6 | 0 | 
7 | B7 | 0 | 
